Results reported in US20230257448A1 (TWIST BIOSCIENCE, published 2023).

Columns and labels:
Settings in all cases: remark: other sources report otherwise
[1] = molecular target: prefusion-stabilized S trimer of the Delta variant (SARS-CoV-2), P0DTC2
[2] = molecular target: S1 monomer of SARS-CoV-2 Delta (SARS-CoV-2), P0DTC2
[3] = molecular target: prefusion-stabilized S trimer of the Omicron (B.1.529) variant (SARS-CoV-2), P0DTC2

B1: 3-31 (Fc fusion)
chain: EVQLVESGGGLVQPGGSLRLSCAASGSTFSINAMGWFRQAPGKEREFVAGITSSGGYTNYADSVKGRFTISADNSKNTAYLQMNSLKPEDTAVYYCAADGVPEYSDYASGPVWGQGTLVTVSS
Kd [1]: < 0.016 nM | Kd [2]: 1.1 nM | Kd [3]: 2.1 nM
